# Several values for one entry are separate records, joined by “and”; a condition that tells them apart may be missing. Equal entries are not always repeated.
# B1: human HMT (Homo sapiens) (protein)
# chain: MASSMRSLFSDHGKYVESFRRFLNHSTEHQCMQEFMDKKLPGIIGRIGDTKSEIKILSIGGGAGEIDLQILSKVQAQYPGVCINNEVVEPSAEQIAKYKELVAKTSNLENVKFAWHKETSSEYQSRMLEKKELQKWDFIHMIQMLYYVKDIPATLKFFHSLLGTNAKMLIIVVSGSSGWDKLWKKYGSRFPQDDLCQYITSDDLTQMLDNLGLKYECYDLLSTMDISDCFIDGNENGDLLWDFLTETCNFNATAPPDLRAELGKDLQEPEFSAKKEGKVLFNNTLSFIVIEA
# Key:
# Assay in all cases: purified protein, by the assay type
# Details in all cases: other: pH 7.4, 20 μM (S)-adenosyl methionine
# [1] = substrate: C[C@@H](N)Cc1c[nH]cn1
# [2] = substrate: NCCc1c[nH]cn1
# [3] = substrate: c1cc(Cc2cnc[nH]2)ccn1
protein,measurement,setting,value
B1,Km,[1],16.26 µM
same,Vmax,[1],0.56 µM/min
same,Vmax/Km,[1],0.034 min⁻¹
same,Km,[2],3.93 µM
same,Vmax,[2],0.19 µM/min
same,Vmax/Km,[2],0.048 min⁻¹
same,Vmax,[3],0.004 µM/min and 0.003 µM/min
same,Vmax/Km,[3],0.0011 min⁻¹ and 0.0012 min⁻¹

# — US20120129892A1, “NOVEL PHARMACEUTICALLY ACCEPTABLE SALTS OF 4-(1H-IMIDAZOL-4-[…])PYRIDINE AND THEIR THERAPEUTICAL USES” (BIOPROJET, priority 2009, published 2012)
